The source of these data is the supplement of paper PMC10567573.

The labels stand for the following.
B1: INTS4 (parent)
chain: YSSGEFSSGRKWGDDAPKEEVDTG
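Further: lentivirally expressed fusions sorted by FACS into six bins by GFP to DsRed ratio, PSI derived from sequencing read proportions per bin multiplied by bin number.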

In the data set the parent is B1. Briefly: protein stability index of a GFP-peptide fusion (GPS, HEK-293T) (PSI 1-6); higher = more stable. Conditions: c terminus: a fixed tail appended.
With YSSGEFSIGRKWGDDAPKEEVDTG [S8I], the protein stability index stood at 1.94.
With YSSGEFSGGRKWGDDAPKEEVDTG [S8G], the protein stability index stood at 3.83.
Then YSSGEFSYGRKWGDDAPKEEVDTG [S8Y], with 2.59; and YSSGEFSFGRKWGDDAPKEEVDTG [S8F], with 2.48.
With YSSGEFSNGRKWGDDAPKEEVDTG [S8N], the protein stability index came to 2.68.
In the case of YSSGEFSRGRKWGDDAPKEEVDTG [S8R], the protein stability index was 2.24.
As for YSSGEFSPGRKWGDDAPKEEVDTG [S8P], the protein stability index stood at 3.25.
Then YSSGEFSAGRKWGDDAPKEEVDTG [S8A], with 2.75; and YSSGEFSMGRKWGDDAPKEEVDTG [S8M], with 1.6.
Then YSSGEFSKGRKWGDDAPKEEVDTG [S8K], with 2.19; and YSSGEFSCGRKWGDDAPKEEVDTG [S8C], with 1.97.
Consider YSSGEFSHGRKWGDDAPKEEVDTG [S8H], for which the protein stability index amounted to 2.25.
Then YSSGEFSEGRKWGDDAPKEEVDTG [S8E], with 3.56; and YSSGEFSQGRKWGDDAPKEEVDTG [S8Q], with 1.89.
On to YSSGEFSLGRKWGDDAPKEEVDTG [S8L], for which the protein stability index came out at 3.21.
For YSSGEFSTGRKWGDDAPKEEVDTG [S8T], the protein stability index turned out to be 2.48.
In the case of YSSGEFSDGRKWGDDAPKEEVDTG [S8D] it was 3.79; in that of YSSGEFSVGRKWGDDAPKEEVDTG [S8V], 1.57; in that of YSSGEFSSGRKWGMDAPKEEVDTG [D14M], 1.94.
Then YSSGEFSSGRKWGSDAPKEEVDTG [D14S], with 2.19; and YSSGEFSSGRKWGWDAPKEEVDTG [D14W], with 2.2; and YSSGEFSSGRKWGKDAPKEEVDTG [D14K], with 1.71.
In the case of YSSGEFSSGRKWGPDAPKEEVDTG [D14P] it was 2.04; in that of YSSGEFSSGRKWGNDAPKEEVDTG [D14N], 2.59; in that of YSSGEFSSGRKWGLDAPKEEVDTG [D14L], 1.98.
Consider YSSGEFSSGRKWGFDAPKEEVDTG [D14F], for which the protein stability index was 2.59.
Take YSSGEFSSGRKWGHDAPKEEVDTG [D14H]: the protein stability index turned out to be 2.73.
YSSGEFSSGRKWGCDAPKEEVDTG [D14C]: the protein stability index was determined as 1.79.
In the case of YSSGEFSSGRKWGIDAPKEEVDTG [D14I] it was 1.54; in that of YSSGEFSSGRKWGGDAPKEEVDTG [D14G], 1.22.
In the case of YSSGEFSSGRKWGYDAPKEEVDTG [D14Y], the protein stability index came out at 2.48.
YSSGEFSSGRKWGTDAPKEEVDTG [D14T]: the protein stability index worked out at 1.94.
As to YSSGEFSSGRKWGVDAPKEEVDTG [D14V], the protein stability index came to 2.01.
In the case of YSSGEFSSGRKWGQDAPKEEVDTG [D14Q] it was 1.41.
Then YSSGEFSSGRKWGEDAPKEEVDTG [D14E], with 2.32; and YSSGEFSSGRKWGRDAPKEEVDTG [D14R], with 2.02; and YSSGEFSSGRKWGADAPKEEVDTG [D14A], with 2.54.
In the case of YSSGENSSGRKWGDDAPKEEVDTG [F6N] it was 5.22.
YSSGEMSSGRKWGDDAPKEEVDTG [F6M]: the protein stability index turned out to be 4.69.
In the case of YSSGESSSGRKWGDDAPKEEVDTG [F6S] it was 5.16; in that of YSSGEQSSGRKWGDDAPKEEVDTG [F6Q], 4.96.
Turning to YSSGERSSGRKWGDDAPKEEVDTG [F6R], the protein stability index worked out at 4.63.
Then YSSGETSSGRKWGDDAPKEEVDTG [F6T], with 4.79; and YSSGEPSSGRKWGDDAPKEEVDTG [F6P], with 5.56; and YSSGEVSSGRKWGDDAPKEEVDTG [F6V], with 4.99.
Take YSSGEYSSGRKWGDDAPKEEVDTG [F6Y]: the protein stability index was found to be 4.13.
For the variant YSSGELSSGRKWGDDAPKEEVDTG [F6L], the protein stability index worked out at 4.24.
As for YSSGEFSSGRKWGDPAPKEEVDTG [D15P], the protein stability index was determined as 1.96.
In the case of YSSGEFSSGRKWGDIAPKEEVDTG [D15I] it was 1.11; in that of YSSGEFSSGRKWGDNAPKEEVDTG [D15N], 2.34.
For the variant YSSGEFSSGRKWGDVAPKEEVDTG [D15V], the protein stability index was 1.78.
In the case of YSSGEFSSGRKWGDTAPKEEVDTG [D15T] it was 2.28; in that of YSSGEFSSGRKWGDCAPKEEVDTG [D15C], 2.5.
YSSGEFSSGRKWGDGAPKEEVDTG [D15G]: the protein stability index worked out at 2.07.
Then YSSGEFSSGRKWGDQAPKEEVDTG [D15Q], with 2.12.
YSSGEFSSGRKWGDSAPKEEVDTG [D15S]: the protein stability index was found to be 2.54.
As to YSSGEFSSGRKWGDWAPKEEVDTG [D15W], the protein stability index was 1.69.
Consider YSSGEFSSGRKWGDFAPKEEVDTG [D15F], for which the protein stability index amounted to 3.02.
YSSGEFSSGRKWGDYAPKEEVDTG [D15Y]: the protein stability index worked out at 2.01.
Then YSSGEFSSGRKWGDAAPKEEVDTG [D15A], with 1.78.
For YSSGEFSSGRKWGDHAPKEEVDTG [D15H], the protein stability index worked out at 1.81.
In the case of YSSGEFSSGRKWGDMAPKEEVDTG [D15M] it was 1.78; in that of YSSGEFSSGRKWGDKAPKEEVDTG [D15K], 2.18; in that of YSSGEFSSGRKWGDEAPKEEVDTG [D15E], 3.12.
In the case of YSSGEFSSGRKWGDLAPKEEVDTG [D15L] it was 2.04; in that of YSSGEFSSGRKWGDRAPKEEVDTG [D15R], 1.92; in that of YSSGEFSSTRKWGDDAPKEEVDTG [G9T], 2.3.
In the case of YSSGEFSSQRKWGDDAPKEEVDTG [G9Q] it was 2.35.
For the variant YSSGEFSSHRKWGDDAPKEEVDTG [G9H], the protein stability index was 2.43.
Turning to YSSGEFSSARKWGDDAPKEEVDTG [G9A], the protein stability index is 1.91.
As for YSSGEFSSYRKWGDDAPKEEVDTG [G9Y], the protein stability index stood at 2.44.
Then YSSGEFSSLRKWGDDAPKEEVDTG [G9L], with 2.49.
In the case of YSSGEFSSSRKWGDDAPKEEVDTG [G9S] it was 2.63.
YSSGEFSSRRKWGDDAPKEEVDTG [G9R]: the protein stability index is 2.32.
In the case of YSSGEFSSERKWGDDAPKEEVDTG [G9E] it was 2.76; in that of YSSGEFSSNRKWGDDAPKEEVDTG [G9N], 2.59.
For YSSGEFSSFRKWGDDAPKEEVDTG [G9F], the protein stability index came to 2.48.
As to YSSGEFSSDRKWGDDAPKEEVDTG [G9D], the protein stability index came to 3.6.
In the case of YSSGEFSSVRKWGDDAPKEEVDTG [G9V] it was 3.12; in that of YSSGEFSSPRKWGDDAPKEEVDTG [G9P], 2.27; in that of YSSGEFSSMRKWGDDAPKEEVDTG [G9M], 1.83.
For YSSGEFSSKRKWGDDAPKEEVDTG [G9K], the protein stability index was 1.28.
Regarding YSSGEFSSCRKWGDDAPKEEVDTG [G9C], the protein stability index is 1.75.
Then YSSGEFSSWRKWGDDAPKEEVDTG [G9W], with 1.43.
As for YSSGEFSSIRKWGDDAPKEEVDTG [G9I], the protein stability index came to 1.84.
In the case of YSSGEFISGRKWGDDAPKEEVDTG [S7I] it was 1.96; in that of YSSGEFDSGRKWGDDAPKEEVDTG [S7D], 3.83; in that of YSSGEFESGRKWGDDAPKEEVDTG [S7E], 4.21.
With YSSGEFPSGRKWGDDAPKEEVDTG [S7P], the protein stability index was 1.67.
On to YSSGEFVSGRKWGDDAPKEEVDTG [S7V], for which the protein stability index amounted to 2.27.
In the case of YSSGEFFSGRKWGDDAPKEEVDTG [S7F] it was 2.98; in that of YSSGEFRSGRKWGDDAPKEEVDTG [S7R], 1.8; in that of YSSGEFYSGRKWGDDAPKEEVDTG [S7Y], 2.52.
Take YSSGEFLSGRKWGDDAPKEEVDTG [S7L]: the protein stability index is 2.43.
